Measured values: the Immune Epitope Database (IEDB)

target: HLA-A*02:06; assay: IEDB peptide-MHC binding, purified MHC/competitive/radioactivity; ≥ and ≤ were set here for values at or beyond the usual limits of such assays; settings: source organism: Hepatitis B virus

Sequence | IC50 [µM]
CLIFLLVLL | 1.04
FIIFLFILL | 0.9
FIIFLFILLL | 1.42
FLFILLLCL | 1.78
FLFILLLCLI | 0.934
ILLLCLIFL | 0.145
ILRGTSFVYV | 0.083
LLDYQGMLPV | 0.0026
LLPIFFCLWV | 0.0023
LLWFHISCL | 0.382
SLYADSPSV | 0.883

same assay, conditions: source organism: Vaccinia virus WR

Sequence | IC50 [µM]
CQCTVQEFI | 1.13
FQESFYEDI | 0.185
LQQNNSFII | 0.423
QQFANVISKI | 0.863
RQVSVKLLI | 0.00013
TQVKELGIAI | 0.0039
VQSVLRDISI | 0.132
VQYRILPMII | 0.395
YQNEVTPEYI | 0.0026

target: HLA-A*02:03; assay: as above; settings: source organism: Hepatitis B virus

Sequence | IC50 [µM]
CLIFLLVLL | 0.659
FIIFLFILL | 1.05
FIIFLFILLL | 0.181
FLFILLLCL | 1.57
FLFILLLCLI | 1.98
HLYSHPIIL | 0.018
ILLLCLIFL | 1.53
ILRGTSFVYV | 0.0022
LLPIFFCLWV | 0.015
SLYADSPSV | 0.0034

same assay, conditions: source organism: Vaccinia virus WR

Sequence | IC50 [µM]
CQCTVQEFI | 4.79
FQESFYEDI | 4.42
QQFANVISKI | 0.0017
RQVSVKLLI | 0.254
SQAKKPEVRI | 2.37
TQVKELGIAI | 0.704
VQSVLRDISI | 0.541
VQYRILPMII | 0.606
YQNEVTPEYI | 0.00021

target: HLA-A*24:02; assay: as above; settings: source organism: Vaccinia virus WR

Sequence | IC50 [µM]
AQQFCQYLI | 0.313
FQESFYEDI | 0.44
LQQNNSFII | 2.36
RQVSVKLLI | 2.54
VQYRILPMII | 1.61

target: HLA-A*30:02; assay: as above; settings: source organism: Vaccinia virus WR

Sequence | IC50 [µM]
AQQFCQYLI | 0.748
RQVSVKLLI | 0.519

target: HLA-A*31:01; assay: as above; settings: source organism: Hepatitis B virus

Sequence | IC50 [µM]
CLIFLLVLL | 0.998
FIIFLFILL | 0.45
FIIFLFILLL | 0.692
FLFILLLCL | 1.47
FLFILLLCLI | 0.215
ILLLCLIFL | 1.48
ILRGTSFVYV | 1.36
LLDYQGMLPV | 4.01
LLVPFVQWFV | 0.161

target: HLA-A*68:01; assay: as above; settings: source organism: Hepatitis B virus

Sequence | IC50 [µM]
FIIFLFILL | 3.2
FIIFLFILLL | 3.7
FLFILLLCLI | 3.69

target: HLA-A*68:02; assay: as above; settings: source organism: Hepatitis B virus

Sequence | IC50 [µM]
FIIFLFILLL | 0.737
FLFILLLCL | 1.2
FLFILLLCLI | 4.5
LLDYQGMLPV | 0.626
LLVPFVQWFV | 0.068

same assay, conditions: source organism: Vaccinia virus WR

Sequence | IC50 [µM]
CQCTVQEFI | 1.73
EQRRSTIFDI | 1.03
QQFANVISKI | 1.05
SQAKKPEVRI | 1.67
TQVKELGIAI | 1.18
VQSVLRDISI | 1.29

target: HLA-A*03:01; assay: as above; settings: source organism: Hepatitis B virus

Sequence | IC50 [µM]
CLIFLLVLL | 0.682
CLRRFIIFL | 2.63
FIIFLFILL | 0.953
FIIFLFILLL | 0.139
FLFILLLCL | 0.664
FLFILLLCLI | 0.716
HLYSHPIIL | 0.171
ILLLCLIFL | 0.624
ILRGTSFVYV | 4.77
LLDYQGMLPV | 0.063
LLPIFFCLWV | 1.33
LLVPFVQWFV | 0.476
LLWFHISCL | 3.26
SLYADSPSV | 2.02

target: HLA-A*02:01; assay: as above; settings: source organism: Hepatitis B virus

Sequence | IC50 [µM]
CLIFLLVLL | 0.101
CLRRFIIFL | 1.39
FIIFLFILLL | 0.105
FLFILLLCL | 0.213
FLFILLLCLI | 0.135

same assay, conditions: source organism: Vaccinia virus WR

Sequence | IC50 [µM]
CQCTVQEFI | 2.2
LQQNNSFII | 1.59
RQVSVKLLI | 0.25
TQVKELGIAI | 1.76
VQSVLRDISI | 0.497
VQTIVFIWFI | 0.952
YQNEVTPEYI | 0.0081

target: HLA-A*23:01; assay: as above; settings: source organism: Vaccinia virus WR

Sequence | IC50 [µM]
AQQFCQYLI | 0.085
FQESFYEDI | 0.263
RQVSVKLLI | 0.835
VQSVLRDISI | 3.5
VQYRILPMII | 0.567

target: HLA-A*02:02; assay: as above; settings: source organism: Hepatitis B virus

Sequence | IC50 [µM]
CLIFLLVLL | 1.52
FIIFLFILL | 0.627
FIIFLFILLL | 0.441
FLFILLLCLI | 0.956
HLYSHPIIL | 0.081
ILLLCLIFL | 1.12
ILRGTSFVYV | 0.0039
LLVPFVQWFV | 0.00017
LLWFHISCL | 0.307
SLYADSPSV | 0.012

same assay, conditions: source organism: Vaccinia virus WR

Sequence | IC50 [µM]
CQCTVQEFI | 2.05
FQESFYEDI | 2.28
QQFANVISKI | 0.051
TQVKELGIAI | 2.17
VQSVLRDISI | 0.078
YQNEVTPEYI | 0.0027

target: HLA-A*02:06; assay: IEDB peptide-MHC binding, cellular MHC/competitive/fluorescence; ≥ and ≤ were set here for values at or beyond the usual limits of such assays; settings: source organism: Hepatitis B virus

Sequence | IC50 [µM]
CLRRFIIFL | 10.1
HLYSHPIIL | 9.45

same assay, conditions: source organism: Vaccinia virus WR

Sequence | IC50 [µM]
EQRRSTIFDI | 25.5
LQDIVNEHDI | 10.8
SQAKKPEVRI | 5.86

target: HLA-A*11:01; assay: as above; settings: source organism: Hepatitis B virus

Sequence | IC50 [µM]
CLIFLLVLL | 35.7
CLRRFIIFL | ≥ 70
FIIFLFILL | 8.98
FIIFLFILLL | 7.47
FLFILLLCL | 19
FLFILLLCLI | 9.73
HLYSHPIIL | ≥ 70
ILLLCLIFL | 13.8
ILRGTSFVYV | ≥ 70
LLDYQGMLPV | 28.5
